Values of other authors in publication PMC3176300.

Key:
[1] = molecular target: α-Galactosidase A (Homo sapiens) (UniProt P06280); assay: SPR
[2] = molecular target: Sortilin (Homo sapiens) (UniProt Q99523)
[3] = molecular target: Megalin (UniProt P98164)

UniProt P06280, sequence (P06280 32-429): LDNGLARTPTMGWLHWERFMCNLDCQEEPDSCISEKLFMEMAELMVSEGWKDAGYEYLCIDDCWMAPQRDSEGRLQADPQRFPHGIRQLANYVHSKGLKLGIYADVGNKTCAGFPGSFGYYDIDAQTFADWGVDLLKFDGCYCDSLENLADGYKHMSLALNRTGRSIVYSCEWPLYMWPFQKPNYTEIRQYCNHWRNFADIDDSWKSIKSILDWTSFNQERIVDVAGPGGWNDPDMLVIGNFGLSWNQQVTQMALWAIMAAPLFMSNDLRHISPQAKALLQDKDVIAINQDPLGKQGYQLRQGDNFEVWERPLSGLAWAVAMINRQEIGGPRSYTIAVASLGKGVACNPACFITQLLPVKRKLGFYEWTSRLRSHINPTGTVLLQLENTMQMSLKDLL
UniProt Q99523, sequence (Q99523 78-755): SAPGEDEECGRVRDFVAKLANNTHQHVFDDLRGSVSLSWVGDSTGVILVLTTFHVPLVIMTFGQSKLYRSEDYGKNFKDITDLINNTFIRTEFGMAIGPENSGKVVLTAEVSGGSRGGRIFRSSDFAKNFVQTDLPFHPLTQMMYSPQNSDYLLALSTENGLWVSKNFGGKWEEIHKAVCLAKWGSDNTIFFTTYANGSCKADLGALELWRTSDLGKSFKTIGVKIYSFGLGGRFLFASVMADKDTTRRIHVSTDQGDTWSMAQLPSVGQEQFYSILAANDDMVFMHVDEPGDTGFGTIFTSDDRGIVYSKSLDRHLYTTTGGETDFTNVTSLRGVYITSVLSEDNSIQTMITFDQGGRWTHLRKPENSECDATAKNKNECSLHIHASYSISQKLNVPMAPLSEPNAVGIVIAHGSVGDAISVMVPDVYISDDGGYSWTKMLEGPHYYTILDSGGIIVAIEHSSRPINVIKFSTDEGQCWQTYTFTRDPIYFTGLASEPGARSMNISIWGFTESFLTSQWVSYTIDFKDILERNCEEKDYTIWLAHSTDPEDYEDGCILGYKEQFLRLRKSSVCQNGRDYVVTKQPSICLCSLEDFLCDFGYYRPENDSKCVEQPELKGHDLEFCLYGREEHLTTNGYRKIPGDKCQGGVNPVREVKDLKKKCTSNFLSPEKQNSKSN

| Substance | Kd [1] | Kd [2] | Kd [3] |
| --- | --- | --- | --- |
| Megalin (from UniProt P98164) | 600 nM | – | – |
| RAP (from UniProt P30533) | – | 78 nM | 8 nM |
